Data on 2 molecules can be found in patent US20240270846A1 (published 2024).

The target of the assay is T1, CD3 epsilon homodimer protein (UniProt P07766 23-126).
T1 construct: Construct of the homodimer is not described; also called CD3 (CD3 epsilon)
As to the kind of experiment: SPR Biacore T200, CD3e homodimer on chip, antibody analyte.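 Further: CD3 epsilon homodimer amine-coupled on CM4 sensor chip, antibodies injected as analyte at 25 °C in HBS-EP+, ratio ≥0.8 taken as binding retained versus unaltered parent antibody.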

T1 sequence (P07766 23-126): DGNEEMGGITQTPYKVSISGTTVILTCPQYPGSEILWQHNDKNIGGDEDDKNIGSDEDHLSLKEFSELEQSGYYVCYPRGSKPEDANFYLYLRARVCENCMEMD

B1: GLS3000 H34S one-arm antibody (antibody, human IgG1, kappa, L234A L235A, N297A, name in Kabat numbering)
light: DIVMTQSPLSLPVTPGEPASISCRSSQSLVHSNRNTYLSWYQQKPGQAPRLLIYKVSNRFSGVPDRFSGSGSGTDFTLKISRVEAEDVGVYYCGQGTQVPYTFGQGTKLEIKRTVAAPSVFIFPPSDEQLKSGTASVVCLLNNFYPREAKVQWKVDNALQSGNSQESVTEQDSKDSTYSLSSTLTLSKADYEKHKVYACEVTHQGLSSPVTKSFNRGEC
heavy: QVQLVESGGGVVQPGRSLRLSCAASGFTFSNAWMHWVRQAPGKGLEWVAQIKAKSNNYATYYAESVKGRFTISRDDSKNSLYLQMNSLKTEDTAVYYCRYVHYGAYYGVDAWGQGTTVTVSSASTKGPSVFPLAPSSKSTSGGTAALGCLVKDYFPEPVTVSWNSGALTSGVHTFPAVLQSSGLYSLSSVVTVPSSSLGTQTYICNVNHKPSNTKVDKKVEPKSCDKTHTCPPCPAPEAAGGPSVFLFPPKPKDTLMISRTPEVTCVVVDVSHEDPEVKFNWYVDGVEVHNAKTKPREEQYASTYRVVSVLTVLHQDWLNGKEYKCKVSNKALPAPIEKTISKAKGQPREPQVYTLPPSRCELTKNQVSLSCAVKGFYPSDIAVEWESNGQPENNYKTTPPVLDSDGSFFLVSKLTVDKSRWQQGNVFSCSVMHEALHNHYTQKSLSLSPDYKDDDDK
chain: EPKSSDKTHTCPPCPAPELLGGPSVFLFPPKPKDTLMISRTPEVTCVVVDVSHEDPEVKFNWYVDGVEVHNAKTKPREEQYNSTYRVVSVLTVLHQDWLNGKEYKCKVSNKALPAPIEKTISKAKGQPREPQVCTLPPSRDELTKNQVSLWCLVKGFYPSDIAVEWESNGQPENNYKTTPPVLDSDGSFFLYSKLTVDKSRWQQGNVFSCSVMHEALHNRYTQKSLSLSP
With B1, the “ratio of amounts bound (altered form/GLS3000)” value is 0.78.

B2: GLS3000 H34T one-arm antibody (antibody, human IgG1, kappa, L234A L235A, N297A, name in Kabat numbering)
light: DIVMTQSPLSLPVTPGEPASISCRSSQSLVHSNRNTYLTWYQQKPGQAPRLLIYKVSNRFSGVPDRFSGSGSGTDFTLKISRVEAEDVGVYYCGQGTQVPYTFGQGTKLEIKRTVAAPSVFIFPPSDEQLKSGTASVVCLLNNFYPREAKVQWKVDNALQSGNSQESVTEQDSKDSTYSLSSTLTLSKADYEKHKVYACEVTHQGLSSPVTKSFNRGEC
heavy: QVQLVESGGGVVQPGRSLRLSCAASGFTFSNAWMHWVRQAPGKGLEWVAQIKAKSNNYATYYAESVKGRFTISRDDSKNSLYLQMNSLKTEDTAVYYCRYVHYGAYYGVDAWGQGTTVTVSSASTKGPSVFPLAPSSKSTSGGTAALGCLVKDYFPEPVTVSWNSGALTSGVHTFPAVLQSSGLYSLSSVVTVPSSSLGTQTYICNVNHKPSNTKVDKKVEPKSCDKTHTCPPCPAPEAAGGPSVFLFPPKPKDTLMISRTPEVTCVVVDVSHEDPEVKFNWYVDGVEVHNAKTKPREEQYASTYRVVSVLTVLHQDWLNGKEYKCKVSNKALPAPIEKTISKAKGQPREPQVYTLPPSRCELTKNQVSLSCAVKGFYPSDIAVEWESNGQPENNYKTTPPVLDSDGSFFLVSKLTVDKSRWQQGNVFSCSVMHEALHNHYTQKSLSLSPDYKDDDDK
chain: EPKSSDKTHTCPPCPAPELLGGPSVFLFPPKPKDTLMISRTPEVTCVVVDVSHEDPEVKFNWYVDGVEVHNAKTKPREEQYNSTYRVVSVLTVLHQDWLNGKEYKCKVSNKALPAPIEKTISKAKGQPREPQVCTLPPSRDELTKNQVSLWCLVKGFYPSDIAVEWESNGQPENNYKTTPPVLDSDGSFFLYSKLTVDKSRWQQGNVFSCSVMHEALHNRYTQKSLSLSP
As for B2, the “ratio of amounts bound (altered form/GLS3000)” value was 0.89.
